Assay results as given in the supplement of paper PMC7877785.
± gives the uncertainty stated by the source.

Experiment: self-splicing fitness, log relative to wild type (ln ratio); higher = more splicing; Tetrahymena group I intron in knt gene, E. coli kanamycin selection, DiMSum; sequences stand for … in CUCUCU…GGAGGGAAAAGUUAUCAGGCAUGCACCUGGUAGCUAGUCUUUAAACCAAUAGAUUGCAUCGGUUUAAAAGGCAAGACCGUCAAAUUGCGGGAAAGGGGUCAACAGCCGUUCAGUACCAAGUCUCAGGGGAAACUUUGAGAUGGCCUUGCAAAGGGUAUGGUAAUAAGCUGACGGACAUGGUCCUAACCACGCAGCCAAGUCCUAAGUCAACAGAUCUUCUGUUGAUAUGGAUGCAGUUCACAGACUAAAUGUCGGUCGGGGAAGAUGUAUUCUUCUCAUAAGAUAUAGUCGGACCUCUCCUUAAUGGGAGCUAGCGGAUGAAGUGAUGCAACACUGGAGCCGCUGGGAACUAAUUUGUAUGCGAAAGUAUAUUGAUUAGUUUUGGAGUACUCGUGGUCG
In short: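 Colonies from six replicate transformations of E. coli BL21(DE3) were pooled and amplicon-sequenced on an Illumina HiSeq 2500. The library placed an intron with all eight P1ex-region nucleotides randomised inside the knt kanamycin-resistance gene on pET-22b(+), and cells grew overnight at 37°C or 30°C on LB agar with or without 25 μg/mL kanamycin (plus 100 μg/mL carbenicillin, 50 μM IPTG, 0.2% rhamnose). Fitness is the DiMSum error-weighted combination of wild-type-normalised replicate fold changes, kanamycin versus none.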

| Sequence | self-splicing fitness (ln) (30 °C) | self-splicing fitness (ln) (37 °C) |
| --- | --- | --- |
| CUCCAGCAAUAUUACGCGAC | -3.79 ± 0.2 | -2.31 ± 0.18 |
| GGUGAGCAAUAUUACGUUGG | -3.52 ± 0.32 | -0.982 ± 0.36 |
| AUACAGCAAUAUUACGACGU | -0.374 ± 0.068 | 0.174 ± 0.084 |
| AGAGAGCAAUAUUACGUGAA | -2.82 ± 0.3 | -2.16 ± 0.29 |
| GGUGAGCAAUAUUACGUUCA |  | -1.92 ± 0.47 |
| UUGCAGCAAUAUUACGAUGG | -0.811 ± 0.14 | -1.07 ± 0.19 |
| GCGGAGCAAUAUUACGGGUU | -4.22 ± 0.29 | -1.49 ± 0.14 |
| AUAUAGCAAUAUUACGACUG | -1.47 ± 0.14 | -1.65 ± 0.21 |
| CUAGAGCAAUAUUACGUGUA | -4.57 ± 0.46 | -2.41 ± 0.23 |
| UCCGAGCAAUAUUACGCCUG | -2.12 ± 0.36 | -1.84 ± 0.31 |
| GAUAAGCAAUAUUACGUCCG | -4.76 ± 0.36 | -2.1 ± 0.22 |
| CCGCAGCAAUAUUACGUCUC | -3.13 ± 0.24 | -2.56 ± 0.26 |
| GCCUAGCAAUAUUACGUAGG | -3.69 ± 0.18 | -2.93 ± 0.25 |
| CAUAAGCAAUAUUACGCUCC | -2.87 ± 0.23 | -0.216 ± 0.49 |
| UAAGAGCAAUAUUACGUCAG | -3.04 ± 0.25 | -2.33 ± 0.33 |
| UACGAGCAAUAUUACGCGUA |  | -2.35 ± 0.41 |
| UUCUAGCAAUAUUACGGGCG | -0.382 ± 0.12 | -0.891 ± 0.12 |

| Sequence | self-splicing fitness (ln) (30 °C) | self-splicing fitness (ln) (37 °C) |
| --- | --- | --- |
| UUCAAGCAAUAUUACGUUCC |  | -1.79 ± 0.34 |
| UGGAAGCAAUAUUACGGGAG | -1.73 ± 0.37 | -2.09 ± 0.25 |
| UGCGAGCAAUAUUACGGGAC | -3.69 ± 0.39 | -1.88 ± 0.23 |
| CCCUAGCAAUAUUACGGGGC | -3.47 ± 0.15 | -2.15 ± 0.22 |
| CCUAAGCAAUAUUACGUUCG | -2.38 ± 0.091 | -2.02 ± 0.11 |
| UUGAAGCAAUAUUACGUGAA | -1.92 ± 0.26 | -0.781 ± 0.22 |
| CCAUAGCAAUAUUACGAGAG | -3.57 ± 0.16 | -2.56 ± 0.14 |
| UCGAAGCAAUAUUACGCUCG | -2.53 ± 0.31 | -1.39 ± 0.27 |
| GGUGAGCAAUAUUACGCCAC | -1.24 ± 0.44 |  |
| GCGAAGCAAUAUUACGUAAU | -1.22 ± 0.097 | -1.07 ± 0.11 |
| UUUCAGCAAUAUUACGUAAU | -2.89 ± 0.14 | -1.58 ± 0.16 |
| CCCAAGCAAUAUUACGAUCU | -2.73 ± 0.14 | -3.53 ± 0.27 |
| AGCGAGCAAUAUUACGUCCC | -1 ± 0.11 | -0.699 ± 0.14 |
| AAUAAGCAAUAUUACGCGGC | -2.74 ± 0.24 | -2.03 ± 0.33 |
| UGAAAGCAAUAUUACGUGUC | -0.712 ± 0.15 | -2.32 ± 0.21 |
| CCGGAGCAAUAUUACGCAGG | -3.9 ± 0.27 | -2.67 ± 0.23 |
| CUGCAGCAAUAUUACGUCCG | -0.43 ± 0.094 | 0.136 ± 0.13 |
